Assays:
pluripotent stem cells = experiment: Proliferation and phenotypic responses to bioactive factors: pluripotent cells; assay type: cell-based
Source text: (§1) Having access to mixed populations of progenitor stem cells, progenitor stem cell clones, and pluripotent stem cell clones permits one to address the influence of various bioactive factors (e.g. recombinant growth factors, purified compounds, and novel inductive factors) on the growth characteristics and phenotypic expression of these stem cells.
Cryopreserved cells are thawed and plated in MSC-1 at 5, 10, or 20×10^3 cells per well of gelatinized 24-well plates following the standard protocol. Twenty-four hours after initial plating the medium is changed to testing medium (TM) 1 to 6 (TM-1, TM-2, TM-3, TM-4, TM-5, or TM-6). TM-1 to TM-4 consist of Ultraculture (cat. no. 12-725B, lot. nos. OMO455 [TM-1], 1M1724 [TM-2], 2M0420 [TM-3], or 2M0274 [TM-4], Bio-Whittaker, Walkersville, Md.), medium (EMEM or Opti-MEM 0.01 mM β-mercaptoethanol), and 1% (v/v) antibiotic-antimycotic, pH 7.4. TM-5 consists of 98% (v/v) medium, 1% (v/v) HS, and 1% (v/v) antibiotic-antimycotic, pH 7.4. TM-6 consists of 98.5% (v/v) medium, 0.5% (v/v) HS, and 1% (v/v) antibiotic-antimycotic, pH 7.4. […] Four testing media (TM#'s 1-4), each containing various concentrations of Ultraculture, were used as. […] The four Ultraculture-based testing media were: TM-1=15% (v/v) Ultraculture (Lot no. OMO455): 84% (v/v) medium: 1% (v/v) antibiotics; TM-2=15% (v/v) Ultraculture (Lot no. 1M1724): 84% (v/v) medium: 1% (v/v) antibiotics; TM-3=50% (v/v) Ultraculture (Lot no. 2M0420): 49% (v/v) medium: 1% (v/v) antibiotics; and TM-4=75% (v/v) Ultraculture (Lot no. 2M0274): 24% (v/v) medium: 1% (v/v) antibiotics. Pre-incubation for 24 hr in testing medium alone is used to wash out any potential synergistic components in the MSC-1 medium. Twenty-four hours later the testing medium is changed to one of the following. For controls, TM-1 to TM-6 alone is used. To identify clones of progenitor cells, the medium is replaced with TM-1 to TM-6 containing 2 μg/ml insulin (Sigma), an agent that accelerates the appearance of phenotypic expression markers in progenitor cells (TABLE 12). […]

progenitor stem cells = experiment: Proliferation and phenotypic responses to bioactive factors: progenitor cells; assay type: cell-based
Source text: as §1
Cryopreserved cells are thawed and plated in MSC-1 at 5, 10, or 20×10^3 cells per well of gelatinized 24-well plates following the standard protocol. Twenty-four hours after initial plating the medium is changed to testing medium (TM) 1 to 6 (TM-1, TM-2, TM-3, TM-4, TM-5, or TM-6). TM-1 to TM-4 consist of Ultraculture (cat. no. 12-725B, lot. nos. OMO455 [TM-1], 1M1724 [TM-2], 2M0420 [TM-3], or 2M0274 [TM-4], Bio-Whittaker, Walkersville, Md.), medium (EMEM or Opti-MEM 0.01 mM β-mercaptoethanol), and 1% (v/v) antibiotic-antimycotic, pH 7.4. TM-5 consists of 98% (v/v) medium, 1% (v/v) HS, and 1% (v/v) antibiotic-antimycotic, pH 7.4. TM-6 consists of 98.5% (v/v) medium, 0.5% (v/v) HS, and 1% (v/v) antibiotic-antimycotic, pH 7.4. […] Four testing media (TM#'s 1-4), each containing various concentrations of Ultraculture, were used as. […]

[1] = presence and approximate distribution of differentiated phenotypes within the culture wells

B1: PDECGF: Platelet-derived endothelial cell growth factor (protein, UniProt P19971 11-482, looked up)
Thymidine phosphorylase: APPAPGDFSGEGSQGLPDPSPEPKQLPELIRMKRDGGRLSEADIRGFVAAVVNGSAQGAQIGAMLMAIRLRGMDLEETSVLTQALAQSGQQLEWPEAWRQQLVDKHSTGGVGDKVSLVLAPALAACGCKVPMISGRGLGHTGGTLDKLESIPGFNVIQSPEQMQVLLDQAGCCIVGQSEQLVPADGILYAARDVTATVDSLPLITASILSKKLVEGLSALVVDVKFGGAAVFPNQEQARELAKTLVGVGASLGLRVAAALTAMDKPLGRCVGHALEVEEALLCMDGAGPPDLRDLVTTLGGALLWLSGHAGTQAQGAARVAAALDDGSALGRFERMLAAQGVDPGLARALCSGSPAERRQLLPRAREQEELLAPADGTVELVRALPLALVLHELGAGRSRAGEPLRLGVGAELLVDVGQRLRRGTPWLRVHRDGPALSGPQSRALQEALVLSDRAPFAAPSPFAELVLPPQQ
Pluripotent stem cells
  Proliferation, Pluripotent: number of times the agent increased the DNA content per well versus its respective control: 1 times
Pluripotent stem cells; pluripotent and progenitor cells
  activity on pluripotent and progenitor stem cells, in words: no measurable effect on either progenitor or pluripotent stem cells
Pluripotent stem cells; [1]
  Phenotypic Expression, Pluripotent: 0
Progenitor stem cells
  Proliferation, Progenitor: number of times the agent increased the DNA content per well versus its respective control: 1 times
Progenitor stem cells; [1]
  Phenotypic Expression, Progenitor: All+
